# Results from patent US20250195629A1, “SITE-SPECIFIC BRAIN THERAPEUTICS” (William Marsh Rice University, priority 2023, published 2025).
# B1: RLuc8.6-IKVAV: fusion of RLuc8.6 and ECM-mimicking peptide IKVAV (SEQ ID NO: 23) via GS linker; CDS SEQ ID NO: 18 (protein)
# chain: MRGSHHHHHHGMASMTGGQQMGRDLYDDDDKDPMASKVYDPEQRKRMITGPQWWARCKQMNVLDSFINYYDSEKHAENAVIFLHGNATSSYLWRHVVPHIEPVARCIIPDLIGMGKSGKSGNGSYRLLDHYKYLTAWFELLNLPKKIIFVGHDWGSALAFHYAYEHQDRIKAIVHMESVVDVIESWMGWPDIEEELALIKSEEGEKMVLENNFFVETLLPSKIMRKLEPEEFAAYLEPFKEKGEVRRPTLSWPREIPLVKGGKPDVVQIVRNYNAYLRASDDLPKLFIESDPGFFSNAIVEGAKKFPNTEFVKVKGLHFLQEDAPDEMGKYIKSFVERVLKNEQGGSGSSGGSGGSGGSGIKVAV
# modifications: misc_feature 1..1095 Synthetic: RLuc8.6-IKVAV
# B2: RLuc8.6: recombinant His-tagged luciferase, model protein enzyme converting coelenterazine into coelenteramide; CDS SEQ ID NO: 17 (protein)
# chain: MRGSHHHHHHGMASMTGGQQMGRDLYDDDDKDPMASKVYDPEQRKRMITGPQWWARCKQMNVLDSFINYYDSEKHAENAVIFLHGNATSSYLWRHVVPHIEPVARCIIPDLIGMGKSGKSGNGSYRLLDHYKYLTAWFELLNLPKKIIFVGHDWGSALAFHYAYEHQDRIKAIVHMESVVDVIESWMGWPDIEEELALIKSEEGEKMVLENNFFVETLLPSKIMRKLEPEEFAAYLEPFKEKGEVRRPTLSWPREIPLVKGGKPDVVQIVRNYNAYLRASDDLPKLFIESDPGFFSNAIVEGAKKFPNTEFVKVKGLHFLQEDAPDEMGKYIKSFVERVLKNEQ
# modifications: His tag; misc_feature 1..1032 Synthetic: RLuc8.6
# What was measured:
# [1] = previously available approach; cited from earlier work
# [2] = Ex vivo BLI of brain sections, retention of unmodified or engineered RLuc8.6; type: in vivo, mouse
# Excerpt: (§1) FUS-BBBO—C57BL/6J male or female mice (12-18 weeks of age) were anaesthetized with 2.5% isoflurane in 1.5% O2 and shaved on top of skull using a trimmer. A catheter, made by a 30-gauge needle connected to PE10 tubing, was inserted into the tail vein, affixed in place using tissue glue and then flushed with 10 units (U) mL^−1 of heparin in sterile saline (0.9% NaCl). Subsequently, the mouse was mounted on the RK50 (FUS Instruments) stereotactic platform using the ear bars and bite bar/nose cone. A midline scalp incision was vertically made to expose the skull after disinfecting the site using three alternating scrubs of chlorhexidine scrub and chlorhexidine solution. The locations of Lambda and Bregma were registered in the RK50 software using the guild pointer. Next, sterile ultrasound gel was applied on the surface of skull before placing the ultrasound transducer in a tank, both of which were filled with degassed water. The mice were then sequentially injected via tail vein with purified recombinant protein in PBS buffer and approximately 1.5×10^6 DEFINITY microbubbles (Lantheus) per gram of body weight diluted in sterile saline. Immediately after injections of protein and microbubbles, the mice were insonated using RK-50 FUS system with axial and lateral diameter of 5 mm and 1.2 mm, respectively.
# Ex vivo analysis of engineered RLuc8.6—FUS was performed to target three sites in the left hemisphere of C57BL6J mice (n=5 mice per group) immediately after systemic administration of RLuc8.6 (20 mg/mL, 100 mg/kg) or engineered variant (20 mg/mL, 104 mg/kg) and microbubbles by tail vein injection. The dose of engineered RLuc8.6 was increased accordingly based on their molecular weight for injecting the same number of molecules as unmodified RLuc8.6. The control group (n=5 mice) was injected intravenously with the same dose of unmodified RLuc8.6 without FUS. The mice were euthanized using CO2 without perfusion at two time points (2-day and 7-day) after FUS-BBBO procedure. Immediately afterwards, the brains were extracted, washed with ˜20 mL PBS buffer in a 50 mL conical tube for 30 s, and then cut into 2 mm sections without olfactory bulb and brainstem using a coronal Slicer (Invitrogen). The sections were individually transferred into a 6-well glass bottom plate (Cellvis) filled with 2 mL PBS buffer. BLI was performed using an IVIS spectrum imager (Perkin Elmer) immediately after adding 1 mL dissolved CTZ (cat #303-INJ, Nanolight Technology) with a final concentration of 10 μM. The parameters used here were similar as in vivo BLI with is of exposure time and field of view C. The average radiance (p/s/cm^2/sr) of each brain section was quantified with the Living Image software (Caliper Life Sciences) and summed to compare the activity retention of RLuc8.6 among different groups.
# [3] = Mouse body weight analysis; type: in vivo; design: key to Significance of body weight difference between day 0 and 3 days after systemic administration: ns (not significant); conditions: for Weight loss: day 0 vs 2 days after injection, RLuc8.6 100 mg/kg, AADC-IKVAV 250 mg/kg
# Description: To assess the potential impact of the RAID approach on the body weight of the mice involved in behavior analysis (n=11 mice for the FUS alone+L-DOPA group and n=14 mice for the FUS+AADC-IKVAV (SEQ ID NO: 23)+L-DOPA group), their body weight was recorded on a daily basis before and after FUS-BBBO administration. […] The body weight of the additional group of mice was also recorded in a similar manner; however, unintentionally four mice were omitted from weighing on the day following the AADC-IKVAV (SEQ ID NO: 23) injection. Similarly, the mouse body weight was recorded before and after the intravenous injection of unmodified or engineered RLuc8.6, which is related to the study presented in FIG. 5.
# [4] = In vivo bioluminescent imaging (BLI) of RLuc8.6 in the head region; design: species or system mouse
# Excerpt: as §1
# In vivo BLI—Two groups of mice (n=7 mice for FUS+RLuc8.6 group and n=3 mice for FUS alone group) underwent FUS-BBBO targeting one site at left striatum immediately after i.v. injection of RLuc8.6 (2 mg/mL, 8 mg/kg) or equivalent volume of PBS buffer. The third group of mice (n=6) was injected intravenously with the same dose of RLuc8.6 without FUS-BBBO procedure. BLI was conducted 1 h, 24 h, 48 h and 96 h after FUS insonation with an IVIS spectrum imager (Perkin Elmer). […] The bioluminescence signal was quantified by calculating the average radiance (p/s/cm^2/sr) in the head region of view C imaging using the Living Image software (Caliper Life Sciences).
# [5] = Immunohistochemical analysis of RLuc8.6 after FUS-BBBO delivery; type: in vivo, mouse; conditions: 150 mg/kg i.v., FUS-BBBO 4 sites left striatum, 1 h post-delivery
# Excerpt: as §1, with “The mice were then sequentially injected via tail vein with purified recombinant protein in PBS buffer and approximately 1.5×10^6 DEFINITY microbubbles (Lantheus) per gram of body weight diluted in sterile saline. Immediately after injections of protein and microbubbles, the mice were insonated using RK-50 FUS system with axial and lateral diameter of 5 mm and 1.2 mm, respectively.” left out
# Histological imaging—All histological images were obtained using a fluorescence microscope (BZ-X810, Keyence). To evaluate RLuc8.6 retention, as depicted in FIG. 2b and FIG. 3, we acquired fluorescence images of striatal sections using a ×4 objective in DAPI (nuclei) and far-red (RLuc8.6) channels. […]
# [6] = FUS-BBBO + protein i.v., RLuc8.6-IKVAV 104 mg/kg
Molecule,time the drug lasts in the brain after FUS-BBBO delivery [1],"mean activity improvement over unmodified RLuc8.6 ([2]; 2 days after FUS-BBBO, sum of average radiance in five sections)",bioluminescence vs RLuc8.6 alone control at 7 days ([2]; 7 days after FUS-BBBO),"level of bioluminescence vs control group without applying FUS ([2]; FUS-BBBO delivery, stated with FIG. 5e (7 days))",duration of retention in the brain ([2]; after a single session of FUS-BBBO delivery) [week],Significance of body weight difference between day 0 and 3 days after systemic administration ([3]; FUS-BBBO + protein i.v.),weight loss on day 3 compared to day 0 ([3]; FUS-BBBO + protein i.v.),"Weight loss [3, 6] [%]","IVIS enzyme levels vs controls ([4]; 8 mg/kg i.v., from 24 hours after FUS-BBBO onwards)","bioluminescence signal averaged over the entire brain, FUS+RLuc8.6 vs RLuc8.6 alone without FUS ([4]; 8 mg/kg i.v., one FUS site left striatum, 1 h after FUS-BBBO, CTZ 3.5 mg/kg i.p.)",upper threshold of enzyme concentration increase within the targeted site vs untargeted controls ([4]; calculated from volume of single BBB opening site (1% of brain volume)),enzyme function within the brain parenchyma ([2]; 7-day timepoint),"average fluorescence intensity of RLuc8.6 immunostaining, FUS target region vs untargeted contralateral site [5]",Significance of body weight difference between day 0 and 3 days after systemic administration ([3]; protein i.v. alone without FUS),Weight loss ([3]; protein i.v. alone without FUS) [%]
NCCCC(=O)O [GABA],approximately 100 minutes,–,–,–,–,–,–,–,–,–,–,–,–,–,–
B1,–,2.3(±0.3) fold,significantly different,113(±33) fold,1,ns,no significant weight loss,3.2±0.8,–,–,–,–,–,–,–
B2,–,–,–,–,–,ns,no significant weight loss,3.4±0.7,statistically indistinguishable from controls,2.2(±0.3) fold,approximately 220 fold,remain functional,significantly higher immunostaining signal,ns,2.1 ± 0.6
